Experiments:
[1] = target: T1, Ap-EncD60^TEVK138^TEV-His
T1 chain: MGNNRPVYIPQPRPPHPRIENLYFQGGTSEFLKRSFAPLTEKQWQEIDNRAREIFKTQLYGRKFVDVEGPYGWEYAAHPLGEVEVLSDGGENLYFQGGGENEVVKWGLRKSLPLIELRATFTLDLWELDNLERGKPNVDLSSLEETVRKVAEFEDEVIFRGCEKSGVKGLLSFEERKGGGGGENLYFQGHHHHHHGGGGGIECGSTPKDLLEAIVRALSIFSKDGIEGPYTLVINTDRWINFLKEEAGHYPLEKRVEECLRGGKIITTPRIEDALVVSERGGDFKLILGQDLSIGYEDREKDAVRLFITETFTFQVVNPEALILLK

[2] = target: T2, HB-EncV57^TEVK138^TEV-His with a GT linker between the TEV site and the N-terminus of Enc
T2 chain: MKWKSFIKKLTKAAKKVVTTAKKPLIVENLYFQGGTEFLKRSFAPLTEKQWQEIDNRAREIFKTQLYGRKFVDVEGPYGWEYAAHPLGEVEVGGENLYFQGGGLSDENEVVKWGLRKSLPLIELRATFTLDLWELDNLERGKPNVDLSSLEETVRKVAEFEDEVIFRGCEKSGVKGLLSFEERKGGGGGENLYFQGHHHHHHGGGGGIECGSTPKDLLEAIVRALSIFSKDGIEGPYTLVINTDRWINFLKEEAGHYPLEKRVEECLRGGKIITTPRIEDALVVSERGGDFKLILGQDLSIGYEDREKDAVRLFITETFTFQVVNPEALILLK

[3] = target: T3, Ap-EncK71^TEVK138^TEV-His
T3 chain: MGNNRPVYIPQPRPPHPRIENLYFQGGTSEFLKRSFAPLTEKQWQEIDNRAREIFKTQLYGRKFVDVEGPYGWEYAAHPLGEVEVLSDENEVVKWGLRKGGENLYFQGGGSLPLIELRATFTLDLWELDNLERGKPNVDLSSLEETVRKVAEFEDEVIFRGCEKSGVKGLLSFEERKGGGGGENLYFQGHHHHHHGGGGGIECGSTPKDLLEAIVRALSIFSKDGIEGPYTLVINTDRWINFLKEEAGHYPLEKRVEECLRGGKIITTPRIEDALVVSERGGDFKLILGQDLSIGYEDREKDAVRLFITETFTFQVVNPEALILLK

[4] = target: T4, HB-EncV57^TEVK138^TEV-His
T4 chain: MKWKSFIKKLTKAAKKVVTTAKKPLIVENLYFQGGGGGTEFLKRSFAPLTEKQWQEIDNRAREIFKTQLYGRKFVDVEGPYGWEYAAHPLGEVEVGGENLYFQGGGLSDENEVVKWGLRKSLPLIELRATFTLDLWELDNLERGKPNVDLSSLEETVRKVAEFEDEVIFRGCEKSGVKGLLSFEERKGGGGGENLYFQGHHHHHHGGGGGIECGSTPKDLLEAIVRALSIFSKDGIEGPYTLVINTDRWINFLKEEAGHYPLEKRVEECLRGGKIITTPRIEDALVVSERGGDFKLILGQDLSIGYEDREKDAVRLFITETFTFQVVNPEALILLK

Ap-EncK138^TEV-His = target: T5, Ap-EncK138^TEV-His
T5 chain: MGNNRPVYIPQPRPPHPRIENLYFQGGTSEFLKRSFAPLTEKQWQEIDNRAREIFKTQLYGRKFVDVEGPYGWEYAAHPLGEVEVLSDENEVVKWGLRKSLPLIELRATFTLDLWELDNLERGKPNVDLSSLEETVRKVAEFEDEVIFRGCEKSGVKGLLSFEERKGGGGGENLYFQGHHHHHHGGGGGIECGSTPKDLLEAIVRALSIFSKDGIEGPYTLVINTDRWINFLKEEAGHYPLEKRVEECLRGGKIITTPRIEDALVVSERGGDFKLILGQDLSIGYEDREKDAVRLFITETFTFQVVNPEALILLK

HB-EncK138^TEV-His = target: T6, HB-EncK138^TEV-His
T6 chain: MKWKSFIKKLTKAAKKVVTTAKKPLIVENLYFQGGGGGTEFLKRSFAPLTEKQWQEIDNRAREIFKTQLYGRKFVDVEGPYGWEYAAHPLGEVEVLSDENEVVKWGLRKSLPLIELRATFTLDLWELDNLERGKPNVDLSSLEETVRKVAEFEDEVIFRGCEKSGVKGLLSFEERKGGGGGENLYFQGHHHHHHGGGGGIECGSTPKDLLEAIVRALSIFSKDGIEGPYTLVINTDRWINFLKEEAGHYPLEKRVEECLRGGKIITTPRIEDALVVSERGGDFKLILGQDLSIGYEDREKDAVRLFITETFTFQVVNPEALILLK

[5] = target: HB-EncK138^TEV-His, EncD60^TEVK138^TEV-His, and HB-EncV57^TEVK138^TEV-His
[6] = target: T7, HB-EncK138^TEV-His with a GT linker between the TEV site and the N-terminus of Enc
T7 chain: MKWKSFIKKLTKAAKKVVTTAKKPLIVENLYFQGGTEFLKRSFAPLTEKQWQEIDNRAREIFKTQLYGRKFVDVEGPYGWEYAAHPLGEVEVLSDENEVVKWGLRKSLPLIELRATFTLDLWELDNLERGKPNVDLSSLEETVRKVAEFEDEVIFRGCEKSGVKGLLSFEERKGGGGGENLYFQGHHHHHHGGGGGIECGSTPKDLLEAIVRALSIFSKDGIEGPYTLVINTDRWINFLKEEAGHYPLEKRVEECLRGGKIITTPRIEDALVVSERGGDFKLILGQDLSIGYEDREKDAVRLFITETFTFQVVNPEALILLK

[7] = target: T8, HB-EncD60^TEVK138^TEV-His with a GT linker between the TEV site and the N-terminus of Enc
T8 chain: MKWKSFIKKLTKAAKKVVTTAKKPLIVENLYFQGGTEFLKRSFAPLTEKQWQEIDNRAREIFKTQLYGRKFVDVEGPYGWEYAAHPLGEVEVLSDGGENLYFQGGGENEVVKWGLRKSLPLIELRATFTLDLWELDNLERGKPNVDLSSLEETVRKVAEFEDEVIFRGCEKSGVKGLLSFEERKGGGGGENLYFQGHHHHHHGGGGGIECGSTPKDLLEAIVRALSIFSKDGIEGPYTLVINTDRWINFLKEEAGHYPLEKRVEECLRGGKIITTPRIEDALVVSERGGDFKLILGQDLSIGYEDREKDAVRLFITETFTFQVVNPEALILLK

[8] = target: T9, HB-EncD60^TEVK138^TEV-His
T9 chain: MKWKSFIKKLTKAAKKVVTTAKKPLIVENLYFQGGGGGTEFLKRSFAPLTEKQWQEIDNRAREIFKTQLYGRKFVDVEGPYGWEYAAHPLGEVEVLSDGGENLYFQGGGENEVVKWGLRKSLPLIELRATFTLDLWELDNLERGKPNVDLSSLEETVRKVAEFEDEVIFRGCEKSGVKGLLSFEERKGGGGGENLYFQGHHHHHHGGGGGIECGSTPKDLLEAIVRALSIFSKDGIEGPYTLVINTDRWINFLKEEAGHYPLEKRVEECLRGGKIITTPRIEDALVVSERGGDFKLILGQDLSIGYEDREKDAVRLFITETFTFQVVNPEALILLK

B1: TEV protease (protein)
chain: GESLFKGPRDYNPISSTICHLTNESDGHTTSLYGIGFGPFIITNKHLFRRNNGTLLVQSLHGVFKVKNTTTLQQHLIDGRDMIIIRMPKDFPPFPQKLKFREPQREERICLVTTNFQTKSMSSMVSDTSCTFPSSDGIFWKHWIQTKDGQCGSPLVSTRDGFIVGIHSASNFTNTNNYFTSVPKNFMELLTNQEAQQWVSGWRLNADSVLWGGHKVFMSKPEEPFQPVKEATQLMNELVYSQ
[1]
  TEV protease digestion, SDS-PAGE and anti-TEV site Western blot (up to 20 h at 30 C): not well digested by TEV protease
[2]
  release of HB peptide after TEV protease digestion (SDS-PAGE): did not result in detectable release of HB peptide by SDS-PAGE
[3]
  TEV protease digestion, SDS-PAGE and anti-TEV site Western blot (up to 20 h at 30 C): construct 125 (Ap-Encap(K71, K138)) is digested by TEV protease to near completion
[4]
  release of HBCM2 peptide after TEV protease digestion (densitometry): released fewer peptide per fusion protein
  release of HBCM2 peptide after TEV protease digestion (overnight, 4 C; Tris-Tricine gel): All constructs were found to at least partially release HBCM2 peptide
Ap-EncK138^TEV-His
  TEV protease digestion, SDS-PAGE and anti-TEV site Western blot (up to 20 h at 30 C): not well digested by TEV protease
HB-EncK138^TEV-His
  release of HBCM2 peptide after TEV protease digestion (densitometry): released fewer peptide per fusion protein
  release of HBCM2 peptide after TEV protease digestion (overnight, 4 C; Tris-Tricine gel): All constructs were found to at least partially release HBCM2 peptide
[5]
  relative HB/HB-Enc ratio (densitometry after TEV protease digestion): a relative HB/HB-Enc ratio of 0.26 to 0.56
[6]
  release of HB peptide after TEV protease digestion (SDS-PAGE): did not result in detectable release of HB peptide by SDS-PAGE
[7]
  release of HB peptide after TEV protease digestion (SDS-PAGE): did not result in detectable release of HB peptide by SDS-PAGE
[8]
  release of HBCM2 peptide after TEV protease digestion (densitometry): released fewer peptide per fusion protein
  release of HBCM2 peptide after TEV protease digestion (overnight, 4 C; Tris-Tricine gel): All constructs were found to at least partially release HBCM2 peptide

Source: patent US20190276501
